Measurements as given in PMC2975540 (Science (New York, N.Y.), 2009).
Where a chain is given by its changes, count along the chain named.

Assays:
[1] = target: T1, Methanocaldococcus jannaschii Nop5 (Methanocaldococcus jannaschii, UniProt Q58105 1-414); test: quantitative amino acid analysis
T1 sequence (looked up): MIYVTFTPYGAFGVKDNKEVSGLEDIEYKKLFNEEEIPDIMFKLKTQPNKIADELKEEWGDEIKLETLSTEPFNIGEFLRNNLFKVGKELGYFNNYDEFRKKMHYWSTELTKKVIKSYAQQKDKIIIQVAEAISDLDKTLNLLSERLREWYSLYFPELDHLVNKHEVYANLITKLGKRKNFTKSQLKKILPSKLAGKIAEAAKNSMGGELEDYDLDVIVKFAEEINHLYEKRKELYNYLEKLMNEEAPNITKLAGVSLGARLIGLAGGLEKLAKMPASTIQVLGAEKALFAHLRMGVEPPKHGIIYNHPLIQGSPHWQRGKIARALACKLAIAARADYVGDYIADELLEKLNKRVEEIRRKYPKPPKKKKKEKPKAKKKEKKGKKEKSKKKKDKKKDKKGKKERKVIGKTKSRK

[2] = target: T2, Nop5mut2 (L143K, V217E) (Methanocaldococcus jannaschii, UniProt Q58105 1-414, L143K | V217E); test: co-sedimentation
T2 sequence (looked up): T1 sequence (looked up) with L143K, V217E

[3] = target: T3, Nop5mut4 (D135A, L143K, V217E, E224A) (Methanocaldococcus jannaschii, UniProt Q58105 1-414, D135A | L143K | V217E | E224A); test: co-sedimentation
T3 sequence (looked up): T1 sequence (looked up) with D135A, L143K, V217E, E224A

stoichiometry N [1]: 1
binding result [2]: binds
binding result [3]: binds
B1: Methanocaldococcus jannaschii fibrillarin (enzyme, UniProt Q58108 1-230, looked up)
chain: MEDIKIKEIFENIYEVDLGDGLKRIATKSIVKGKKVYDEKIIKIGDEEYRIWNPNKSKLAAAIIKGLKVMPIKRDSKILYLGASAGTTPSHVADIADKGIVYAIEYAPRIMRELLDACAERENIIPILGDANKPQEYANIVEKVDVIYEDVAQPNQAEILIKNAKWFLKKGGYGMIAIKARSIDVTKDPKEIFKEQKEILEAGGFKIVDEVDIEPFEKDHVMFVGIWEGK
